Laboratory results from the supplement of paper PMC7125110.
± gives the standard error. For some of these results: Fewer inactive variants are shown than the library holds.

B1: glmS ribozyme (parent)
chain: AUAAAAGCGCCAGAACUACAGAAAUGUAGUUGACGAGGAGGAGGUUUAUCGAAUUUUCGGCGGAUGCCUCCAAA

Legend:
Conditions in all cases: with glucosamine-6-phosphate
[1] = variants of: B1; assay: kcat; higher = faster cleavage; RNA array
Summary of the method: (§1)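 Tiles bearing barcoded ribozyme variants, transcribed in situ by E. coli RNA polymerase on sequenced MiSeq chips, were imaged over ~14 h at 37 °C using a hybridised Cy3 probe. Glucosamine-6-phosphate was supplied at 40 μM to 10 mM in HEPES/KCl/Mg(OAc)2 buffer. kobs came from one- or two-exponential decay fits to normalised per-tile medians, and weighted Michaelis–Menten fits then provided kcat and KM.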

[2] = variants of: B1; assay: self-cleavage kobs at 40 uM GlcN6P; higher = faster cleavage; RNA array
Summary of the method: as §1

[3] = variants of: B1; assay: self-cleavage kobs at 160 uM GlcN6P; higher = faster cleavage; RNA array
Summary of the method: as §1

[4] = variants of: B1; assay: self-cleavage kobs at 640 uM GlcN6P; higher = faster cleavage; RNA array
Summary of the method: as §1

[5] = variants of: B1; assay: self-cleavage kobs at 2500 uM GlcN6P; higher = faster cleavage; RNA array
Summary of the method: as §1

[6] = variants of: B1; assay: self-cleavage kobs at 10000 uM GlcN6P; higher = faster cleavage; RNA array
Summary of the method: as §1

[7] = variants of: B1; assay: KM; higher = weaker cofactor use; RNA array
Summary of the method: as §1

Variant	kcat [1] [s⁻¹]	self-cleavage kobs at 40 uM GlcN6P [2] [s⁻¹]	self-cleavage kobs at 160 uM GlcN6P [3] [s⁻¹]	self-cleavage kobs at 640 uM GlcN6P [4] [s⁻¹]	self-cleavage kobs at 2500 uM GlcN6P [5] [s⁻¹]	self-cleavage kobs at 10000 uM GlcN6P [6] [s⁻¹]	KM [7] [µM]
C50G C71U	0.000123 ± 2.1e-05	6.9e-05 ± 9.9e-06	0.000107 ± 1e-05	0.000194 ± 2.7e-05	0.000103 ± 1.3e-05	–	–
G38A A52U	< 1e-05	–	–	–	–	< 1e-05	–
C16U U57G C61A	1.37e-05 ± 2e-06	–	–	–	–	–	–
A6G A42G	0.000724 ± 0.00013	–	2.26e-05 ± 1.1e-05	0.000175 ± 2.3e-05	0.000329 ± 4.6e-05	0.000569 ± 5.1e-05	2730 ± 960
C50A	2.67e-05 ± 8.3e-07	–	–	1.25e-05 ± 3.1e-06	2.31e-05 ± 2.1e-06	2.49e-05 ± 1.3e-06	579 ± 130
U30A C67A	0.00161 ± 0.00066	4.92e-05 ± 9.2e-06	0.00014 ± 3.7e-05	0.000231 ± 4.7e-05	0.00102 ± 0.00018	0.00131 ± 0.0002	–
G13U U54G	0.00069 ± 0.00021	3.24e-05 ± 1.1e-05	9.27e-05 ± 1.6e-05	0.000263 ± 6e-05	0.000363 ± 6.4e-05	0.000964 ± 0.00015	–
C11A G41A	< 1e-05	–	< 1e-05	< 1e-05	–	–	2450 ± 650
A14U G41U	0.000307 ± 3.4e-05	–	4.48e-05 ± 7.9e-06	0.000109 ± 1.4e-05	0.000292 ± 5.4e-05	0.000271 ± 3.1e-05	1010 ± 220
U46G G66U C67U	0.000249 ± 2.4e-05	–	–	0.000128 ± 3e-05	0.000172 ± 6.1e-05	0.00023 ± 3.9e-05	804 ± 230
U31C C70G	5.96e-05 ± 8.1e-06	–	–	3.34e-05 ± 7.2e-06	6.15e-05 ± 7.8e-06	4.89e-05 ± 8.3e-06	–
G32U C70G	7.04e-05 ± 1e-05	–	–	8.68e-05 ± 1.2e-05	5.3e-05 ± 5.7e-06	7.56e-05 ± 4.5e-06	–
C16U A36U	< 1e-05	–	–	–	–	–	–
A14G A52U	0.000706 ± 1.3e-05	–	–	9.98e-05 ± 1.6e-05	0.000274 ± 5.2e-05	0.000509 ± 6.5e-05	3890 ± 120
G41U A42G	0.000998 ± 0.00021	4.79e-05 ± 9.1e-06	9.47e-05 ± 2e-05	0.000285 ± 6.2e-05	0.000816 ± 0.00012	0.000843 ± 0.00012	1240 ± 450
A12U U57G	0.000297 ± 3.7e-05	–	4.4e-05 ± 2.1e-05	6.1e-05 ± 1.2e-05	0.000162 ± 2.6e-05	0.000241 ± 3e-05	2260 ± 590
